Reference: the supplement of paper PMC10899765

These sequences were tested on MCF10A (assay: percent viability (nuclei count relative to siNT); higher = more viable cells). Details: 20 nM; 72 h.
Protocol: (§1)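 After 72 h, cells were fixed and stained with Hoechst and anti-fibrillarin, and nucleoli per nucleus were counted with CellProfiler. Values are plate-adjusted percent effect for the one-nucleolus and 5+ nucleoli phenotypes, normalised to siNT (0%) and to the positive controls siNOL11 or siKIF11 (100%), as the mean of biological triplicates. Percent viability is the nuclei count relative to siNT.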

In order of rising percent viability:
1. AGGUUGUCCGUGGUGAGUUCGCA [hsa-miR-323b-5p]  9.9%
2. UUUCUGUCUUUUCUGGUCCAG [hsa-miR-4743-3p]  17.7%
3. UAGCCCCCAGGCUUCACUUGGCG [hsa-miR-3943]  19.1%
4. AAGGGAGGAGGAGCGGAGGGGCCCU [hsa-miR-4739]  19.6%
5. UGCACGGCACUGGGGACACGU [hsa-miR-3177-3p]  20.3%
6. CUCAUCUGCAAAGAAGUAAGUG [hsa-miR-452-3p]  21.6%
7. UCAGGGUUGGUAGGGGUUGCU [hsa-miR-6823-5p]  22.1%
8. CAGGGGCUGGGGUUUCAGGUUCU [hsa-miR-6813-5p]  23.1%
9. AUGGGUGAAUUUGUAGAAGGAU [hsa-miR-1262]  27.2%
10. ACGGGCAGGGCAGUGCACCCUG [hsa-miR-7112-5p]  31.2%
11. CUCUAGAGGGAAGCGCUUUCUG [hsa-miR-519c-5p]  31.6%
12. CAAAACCGCAGUAACUUUUGU [hsa-miR-548at-3p]  33%
13. ACCUGGCAGCAGGGAGCGUCGU [hsa-miR-8073]  33.8%
14. GUGGGAUUUCUGAGUAGCAUC [hsa-miR-5089-5p]  36.5%
15. UCGGGCCUGGGGUUGGGGGAGC [hsa-miR-6749-5p]  37.7%
16. UGAGGGGCAGAGAGCGAGACUUU [hsa-miR-423-5p]  41.6%
17. CUGAAUAGCUGGGACUACAGGU [hsa-miR-5585-3p]  44.1%
18. UAUGUGGGAUGGUAAACCGCUU [hsa-miR-299-3p]  45.6%
19. UCUCUGAGCAAGGCUUAACACC [hsa-miR-4653-5p]  50.6%
20. AUGGUUCCGUCAAGCACCAUGG [hsa-miR-218-1-3p]  51%
21. AUUAGGUAGUGGCAGUGGAAC [hsa-miR-6509-5p]  55.7%
22. UGUCUUACUCCCUCAGGCACAU [hsa-miR-550a-3p]  60.2%
23. AACUCUGUCUUCACUCAUGAGU [hsa-miR-3664-5p]  60.5%
24. UCGCCUCCUCCUCUCCC [hsa-miR-1281]  60.9%
25. UCUGGUAUGUAGUAGGUAAUAA [hsa-miR-4774-5p]  62.8%
26. CAUGGUUCUGUCAAGCACCGCG [hsa-miR-218-2-3p]  68%
27. GCUCUGACUUUAUUGCACUACU [hsa-miR-301a-5p]  68.8%
28. AAACCGUUACCAUUACUGAGUU [hsa-miR-451a]  69.8%
29. GUGAGCCAGUGGAAUGGAGAGG [hsa-miR-6807-5p]  74.2%
30. UCCGAGCCUGGGUCUCCCUCUU [hsa-miR-615-3p]  74.9%
31. UGCAAAAGUAAUCACAGUUUUU [hsa-miR-548f-5p]  75.6%
32. GAUGCGCCGCCCACUGCCCCGCGC [hsa-miR-4787-3p]  76.2%
33. CCCAAUACACGGUCGACCUCUU [hsa-miR-323b-3p]  77.6%
34. AUCCGCGCUCUGACUCUCUGCC [hsa-miR-937-3p]  78.1%
35. GGGGGGUGUGGAGCCAGGGGGC [hsa-miR-6752-5p]  79.1%
36. CACAGGACUGACUCCUCACCCCAGUG [hsa-miR-4700-3p]  83.5%
37. CAGGGCUCAGGGAUUGGAUGGAGG [hsa-miR-5088-5p]  86.9%
38. ACGGCCCAGGCGGCAUUGGUG [hsa-miR-6075]  87.5%
39. UCGUGUCUUGUGUUGCAGCCGG [hsa-miR-187-3p]  87.7%
40. AAAUCUCUGCAGGCAAAUGUGA [hsa-miR-216b]  97.3%
41. GCAGCAGAGAAUAGGACUACGUC [hsa-miR-922]  108%
42. CCUCUAAAGGGAAGCGCUUUCU [hsa-miR-520f-5p]  119%
43. GGCUCAAUCUCUGGUCCUGCAGCC [hsa-miR-7158-5p]  132%
44. GCAGUUCUGAGCACAGUACAC [hsa-miR-4277]  210%

Each sequence was assayed on MCF10A (assay: 5+ nucleoli phenotype percent effect (relative to siNT 0% and siKIF11 100%); higher = more cells with five or more nucleoli). Details: 20 nM; 72 h.
Protocol: as §1

In order of rising “5+ nucleoli phenotype percent effect” value:
1. CUCAUCUGCAAAGAAGUAAGUG [hsa-miR-452-3p]  -40.5%
2. ACCUGGCAGCAGGGAGCGUCGU [hsa-miR-8073]  -35.6%
3. UUUCUGUCUUUUCUGGUCCAG [hsa-miR-4743-3p]  -25.7%
4. UCGCCUCCUCCUCUCCC [hsa-miR-1281]  -24.6%
5. UGUCUUACUCCCUCAGGCACAU [hsa-miR-550a-3p]  -24%
6. CAAAACCGCAGUAACUUUUGU [hsa-miR-548at-3p]  -23.4%
7. UAUGUGGGAUGGUAAACCGCUU [hsa-miR-299-3p]  -20.9%
8. AUGGGUGAAUUUGUAGAAGGAU [hsa-miR-1262]  -20.4%
9. UAGCCCCCAGGCUUCACUUGGCG [hsa-miR-3943]  -18.2%
10. UGCACGGCACUGGGGACACGU [hsa-miR-3177-3p]  -18%
11. CAGGGGCUGGGGUUUCAGGUUCU [hsa-miR-6813-5p]  -16.1%
12. UCUCUGAGCAAGGCUUAACACC [hsa-miR-4653-5p]  -12.4%
13. UCAGGGUUGGUAGGGGUUGCU [hsa-miR-6823-5p]  -11.9%
14. UGAGGGGCAGAGAGCGAGACUUU [hsa-miR-423-5p]  -10.7%
15. CUCUAGAGGGAAGCGCUUUCUG [hsa-miR-519c-5p]  -10.6%
16. GUGGGAUUUCUGAGUAGCAUC [hsa-miR-5089-5p]  -4.04%
17. UCGUGUCUUGUGUUGCAGCCGG [hsa-miR-187-3p]  -1.49%
18. UCCGAGCCUGGGUCUCCCUCUU [hsa-miR-615-3p]  -0.788%
19. ACGGGCAGGGCAGUGCACCCUG [hsa-miR-7112-5p]  2.37%
20. AUGGUUCCGUCAAGCACCAUGG [hsa-miR-218-1-3p]  4.75%
21. AAGGGAGGAGGAGCGGAGGGGCCCU [hsa-miR-4739]  4.78%
22. ACGGCCCAGGCGGCAUUGGUG [hsa-miR-6075]  5.39%
23. AACUCUGUCUUCACUCAUGAGU [hsa-miR-3664-5p]  6.12%
24. AUUAGGUAGUGGCAGUGGAAC [hsa-miR-6509-5p]  6.73%
25. CAUGGUUCUGUCAAGCACCGCG [hsa-miR-218-2-3p]  7.58%
26. AUCCGCGCUCUGACUCUCUGCC [hsa-miR-937-3p]  8.26%
27. GCAGCAGAGAAUAGGACUACGUC [hsa-miR-922]  9.43%
28. AAACCGUUACCAUUACUGAGUU [hsa-miR-451a]  12.9%
29. CAGGGCUCAGGGAUUGGAUGGAGG [hsa-miR-5088-5p]  15.2%
30. GUGAGCCAGUGGAAUGGAGAGG [hsa-miR-6807-5p]  16.4%
31. CUGAAUAGCUGGGACUACAGGU [hsa-miR-5585-3p]  16.9%
32. UCGGGCCUGGGGUUGGGGGAGC [hsa-miR-6749-5p]  21.9%
33. UGCAAAAGUAAUCACAGUUUUU [hsa-miR-548f-5p]  23.9%
34. GGCUCAAUCUCUGGUCCUGCAGCC [hsa-miR-7158-5p]  25.6%
35. GCAGUUCUGAGCACAGUACAC [hsa-miR-4277]  31.2%
36. GAUGCGCCGCCCACUGCCCCGCGC [hsa-miR-4787-3p]  33.1%
37. GGGGGGUGUGGAGCCAGGGGGC [hsa-miR-6752-5p]  41.7%
38. CACAGGACUGACUCCUCACCCCAGUG [hsa-miR-4700-3p]  43.2%
39. AAAUCUCUGCAGGCAAAUGUGA [hsa-miR-216b]  44.2%
40. CCUCUAAAGGGAAGCGCUUUCU [hsa-miR-520f-5p]  57.3%
41. AGGUUGUCCGUGGUGAGUUCGCA [hsa-miR-323b-5p]  57.7%
42. GCUCUGACUUUAUUGCACUACU [hsa-miR-301a-5p]  59.9%
43. CCCAAUACACGGUCGACCUCUU [hsa-miR-323b-3p]  68.7%
44. UCUGGUAUGUAGUAGGUAAUAA [hsa-miR-4774-5p]  80.9%

What follows are sequences tested on MCF10A (assay: one-nucleolus phenotype percent effect (relative to siNT 0% and siNOL11 100%); higher = more cells with one nucleolus (ribosome biogenesis inhibition)). Details: 20 nM; 72 h.
Protocol: as §1

In order of rising “one-nucleolus phenotype percent effect” value:
1. UGCAAAAGUAAUCACAGUUUUU [hsa-miR-548f-5p]  -27.5%
2. CCUCUAAAGGGAAGCGCUUUCU [hsa-miR-520f-5p]  -26.3%
3. UCUGGUAUGUAGUAGGUAAUAA [hsa-miR-4774-5p]  -25.6%
4. GCAGUUCUGAGCACAGUACAC [hsa-miR-4277]  -25%
5. CCCAAUACACGGUCGACCUCUU [hsa-miR-323b-3p]  -23.7%
6. GCUCUGACUUUAUUGCACUACU [hsa-miR-301a-5p]  -23.6%
7. GGGGGGUGUGGAGCCAGGGGGC [hsa-miR-6752-5p]  -21.9%
8. GGCUCAAUCUCUGGUCCUGCAGCC [hsa-miR-7158-5p]  -21.5%
9. GUGAGCCAGUGGAAUGGAGAGG [hsa-miR-6807-5p]  -20.6%
10. AUUAGGUAGUGGCAGUGGAAC [hsa-miR-6509-5p]  -17.9%
11. CAGGGCUCAGGGAUUGGAUGGAGG [hsa-miR-5088-5p]  -17.9%
12. GAUGCGCCGCCCACUGCCCCGCGC [hsa-miR-4787-3p]  -16.2%
13. AAAUCUCUGCAGGCAAAUGUGA [hsa-miR-216b]  -16.2%
14. CACAGGACUGACUCCUCACCCCAGUG [hsa-miR-4700-3p]  -16%
15. GCAGCAGAGAAUAGGACUACGUC [hsa-miR-922]  -15%
16. CUGAAUAGCUGGGACUACAGGU [hsa-miR-5585-3p]  -12.6%
17. UCGGGCCUGGGGUUGGGGGAGC [hsa-miR-6749-5p]  -10.1%
18. UCGUGUCUUGUGUUGCAGCCGG [hsa-miR-187-3p]  -7.21%
19. UCCGAGCCUGGGUCUCCCUCUU [hsa-miR-615-3p]  -6.23%
20. AUCCGCGCUCUGACUCUCUGCC [hsa-miR-937-3p]  -5.97%
21. AAACCGUUACCAUUACUGAGUU [hsa-miR-451a]  -5.64%
22. AGGUUGUCCGUGGUGAGUUCGCA [hsa-miR-323b-5p]  -5.61%
23. ACGGCCCAGGCGGCAUUGGUG [hsa-miR-6075]  -5.35%
24. CAGGGGCUGGGGUUUCAGGUUCU [hsa-miR-6813-5p]  -4.41%
25. AACUCUGUCUUCACUCAUGAGU [hsa-miR-3664-5p]  -2.78%
26. CUCUAGAGGGAAGCGCUUUCUG [hsa-miR-519c-5p]  1.39%
27. GUGGGAUUUCUGAGUAGCAUC [hsa-miR-5089-5p]  3.12%
28. UAGCCCCCAGGCUUCACUUGGCG [hsa-miR-3943]  8.41%
29. UCGCCUCCUCCUCUCCC [hsa-miR-1281]  10.9%
30. AUGGUUCCGUCAAGCACCAUGG [hsa-miR-218-1-3p]  11.8%
31. ACGGGCAGGGCAGUGCACCCUG [hsa-miR-7112-5p]  12.5%
32. CAUGGUUCUGUCAAGCACCGCG [hsa-miR-218-2-3p]  12.5%
33. UGAGGGGCAGAGAGCGAGACUUU [hsa-miR-423-5p]  13.3%
34. UAUGUGGGAUGGUAAACCGCUU [hsa-miR-299-3p]  13.9%
35. UGUCUUACUCCCUCAGGCACAU [hsa-miR-550a-3p]  15.4%
36. AUGGGUGAAUUUGUAGAAGGAU [hsa-miR-1262]  17.3%
37. UCUCUGAGCAAGGCUUAACACC [hsa-miR-4653-5p]  18.9%
38. UCAGGGUUGGUAGGGGUUGCU [hsa-miR-6823-5p]  19.8%
39. AAGGGAGGAGGAGCGGAGGGGCCCU [hsa-miR-4739]  21.1%
40. ACCUGGCAGCAGGGAGCGUCGU [hsa-miR-8073]  28.9%
41. UGCACGGCACUGGGGACACGU [hsa-miR-3177-3p]  33.1%
42. CAAAACCGCAGUAACUUUUGU [hsa-miR-548at-3p]  37.5%
43. CUCAUCUGCAAAGAAGUAAGUG [hsa-miR-452-3p]  48.1%
44. UUUCUGUCUUUUCUGGUCCAG [hsa-miR-4743-3p]  57.9%
